Like-named read-outs stand apart in the source and are kept apart here. Where no end group is shown, it is not given here. A value given as a limit tells only on which side of the number the result lay.

B2: PSMA Fab (SEQ ID NOs: 19, 20) (Fab, V domains shown)
VH: QVQLVESGGGVVQPGRSLRLSCAASGFAFSRYGMHWVRQAPGKGLEWVAVIWYDGSNKYYADSVKGRFTISRDNSKNTQYLQMNSLRAEDTAVYYCARGGDFLYYYYYGMDVWGQGTTVTVSS
VL: DIQMTQSPSSLSASVGDRVTITCRASQGISNYLAWYQQKTGKVPKFLIYEASTLQSGVPSRFSGGGSGTDFTLTISSLQPEDVATYYCQNYNSAPFTFGPGTKVDIKR
notes: also called 006 PSMA Fab; anti-PSMA Fab

Assay [1] addresses T1, Peptide-236 (cysteine pairing not given here; also: biotinylated, site not given here).
T1 peptide: DVKLCKPEWMCYGL
Nature of the assay: BLI, biotinylated peptide on sensor. For orientation: Biolayer interferometry detects binding as a change in optical thickness at a sensor tip.

Assay [2] has as its target T2, Peptide-227 (cysteine pairing not given here; also: biotinylated, site not given here).
T2 peptide: LDNWCKPSWMCTGF
Nature of the assay: BLI, biotinylated peptide on sensor.

Assay [3] concerns the target T3, Peptide-270 (cysteine pairing not given here; also: biotinylated, site not given here).
T3 peptide: ESRLCVPAWMCAGF
Kind of assay: BLI, biotinylated peptide on sensor.

Assay [4] deals with T4, Peptide-286 (cysteine pairing not given here; also: biotinylated (site not given here)).
T4 peptide: VLKYCIPDWMCAGI
Nature of the assay: BLI, biotinylated peptide on sensor.

Assay [5] deals with T5, Peptide-267 (cysteine pairing not given here; also: biotinylated, site not given here).
T5 peptide: FTNYCVPSWMCTGF
Nature of the assay: BLI, biotinylated peptide on sensor.

Assay [6] addresses T6, Peptide-274 (cysteine pairing not given here; also: biotinylated, site not given here).
T6 peptide: ITPVCKPLWMCSGL
Nature of the assay: BLI, biotinylated peptide on sensor.

The target in assay [7] is T7, Peptide-284 (cysteine pairing not given here; also: biotinylated (site not given here)).
T7 peptide: TEVRCTPPWMCLGF
Kind of assay: BLI, biotinylated peptide on sensor.

The target of assay [8] is T8, Peptide-235 (cysteine pairing not given here; also: biotinylated, site not given here).
T8 peptide: VEKLCTPIWMCLGF
Nature of the assay: BLI, biotinylated peptide on sensor.

The target of assay [9] is T9, Peptide-285 (cysteine pairing not given here; also: biotinylated (site not given here)).
T9 peptide: VERLCTPAWMCHGF
Nature of the assay: BLI, biotinylated peptide on sensor.

Assay [10] concerns the target T10, Peptide-268 (cysteine pairing not given here; also: biotinylated, site not given here).
T10 peptide: VEKVCKPVWMCVGF
Kind of assay: BLI, biotinylated peptide on sensor.

In assay [11] the target is T11, Peptide-233 (cysteine pairing not given here; also: biotinylated, site not given here).
T11 peptide: GEKWCIPDWMCSGF
Kind of assay: BLI, biotinylated peptide on sensor.

Assay [12] concerns the target T12, Peptide-232 (cysteine pairing not given here; also: biotinylated, site not given here).
T12 peptide: LDKWCVPKWMCSGL
Kind of assay: BLI, biotinylated peptide on sensor.

In assay [13] the target is T13, Peptide-219 (cysteine pairing not given here; also: biotinylated, site not given here).
T13 peptide: HVKLCKPAWMCQGL
Nature of the assay: BLI, biotinylated peptide on sensor.

For assay [14], the target named is T14, Peptide-282 (cysteine pairing not given here; also: biotinylated (site not given here)).
T14 peptide: IVVKCVPSWMCEGF
Kind of assay: BLI, biotinylated peptide on sensor.

Assay [15] has as its target T15, Peptide-263 (cysteine pairing not given here; also: biotinylated, site not given here).
T15 peptide: AVKACIPEWMCIGF
Nature of the assay: BLI, biotinylated peptide on sensor.

In assay [16] the target is T16, Peptide-230 (cysteine pairing not given here; also: biotinylated, site not given here).
T16 peptide: VTKWCIPPWMCEVT
Kind of assay: BLI, biotinylated peptide on sensor.

The target in assay [17] is T17, Peptide-239 (cysteine pairing not given here; also: biotinylated, site not given here).
T17 peptide: IDIRCTPIWMCVGF
Kind of assay: BLI, biotinylated peptide on sensor.

In assay [18] the target is T18, Peptide-283 (cysteine pairing not given here; also: biotinylated (site not given here)).
T18 peptide: TVAYCKPAWMCQGF
Kind of assay: BLI, biotinylated peptide on sensor.

Assay [19] concerns the target T19, Peptide-271 (cysteine pairing not given here; also: biotinylated, site not given here).
T19 peptide: EDILCKPKWMCEGF
Kind of assay: BLI, biotinylated peptide on sensor.

Assay [20] has as its target T20, Peptide-225 (cysteine pairing not given here; also: biotinylated, site not given here).
T20 peptide: IPKSCIPSWMCTGF
Nature of the assay: BLI, biotinylated peptide on sensor.

The target in assay [21] is T21, Peptide-277 (cysteine pairing not given here; also: biotinylated (site not given here)).
T21 peptide: VVIKCKPEWMCSGF
Nature of the assay: BLI, biotinylated peptide on sensor.

The target of assay [22] is T22, Peptide-179 (cysteine pairing not given here; also: biotinylated (site not given here)).
T22 construct: PSMA peptide mask (P2)
T22 peptide: LMKWCTPRWMCAAE
Nature of the assay: ELISA, biotinylated peptide captured on neutravidin, PSMA Fab titrated.

The target of assay [23] is T23, Peptide-181 (cysteine pairing not given here; also: biotinylated (site not given here)).
T23 construct: PSMA peptide mask (P2)
T23 peptide: PELRCVPFWMCSFN
The assay is described as above.

For assay [24], the target named is T24, Peptide-180 (cysteine pairing not given here; also: biotinylated (site not given here)).
T24 construct: PSMA peptide mask (P2)
T24 peptide: IAVLCQPNWMCAGF
Described as above.

Assay [25] addresses T22, Peptide-179. The assay is described as above.
Assay [26] has as its target T22, Peptide-179. Kind of assay: BLI (Octet), biotinylated peptide on streptavidin sensor, PSMA Fab titrated, 1:1 model.
The target of assay [27] is T25, Peptide-205 (cysteine pairing not given here; also: biotinylated (site not given here)).
T25 construct: PSMA peptide mask (P2)
T25 peptide: MCQWDKINYWMDCD
The description is as above.

Assay [28] concerns the target T24, Peptide-180. The description is as above.
The target in assay [29] is T26, Peptide-204 (cysteine pairing not given here; also: biotinylated (site not given here)).
T26 construct: PSMA peptide mask (P2)
T26 peptide: QCTWNEKTWWMECE
Described as above.

In assay [30] the target is T27, Peptide-202 (cysteine pairing not given here; also: biotinylated (site not given here)).
T27 construct: PSMA peptide mask (P2)
T27 peptide: MCQWDELNYWMDCD
Described as above.

For assay [31], the target named is T28, Peptide-194 (cysteine pairing not given here; also: biotinylated (site not given here)).
T28 construct: PSMA peptide mask (P2)
T28 peptide: SKLLCVPPWMCYHV
The description is as above.

The target in assay [32] is T29, Anti-CD28 Fab (SEQ ID NOs: 696, 697).
T29 construct: Biotinylated and captured on neutravidin coated plates in the panning ELISA
Kind of assay: phage binding ELISA; anti-CD28 Fab on plate pre-incubated with CD28 antigen as competitor, anti-M13 HRP detection.

Assay [33] shares this target. Nature of the assay: phage binding ELISA; biotinylated anti-CD28 Fab on neutravidin plate, clonal phage supernatant, anti-M13 HRP detection. (In general: ELISA stands for enzyme-linked immunosorbent assay.)
Assay [34] deals with Ab-15. Nature of the assay: BLI (Octet): sensor loaded with 20 nM biotinylated peptide, 100 nM Ab-15.
The target in assay [35] is Ab-15. Nature of the assay: BLI (Octet): biotinylated peptide on sensor, Ab-15 titrated, 1:1 model.
Assay [36] concerns the target Ab-15. Nature of the assay: BLI (Octet): sensor loaded with 200 nM biotinylated peptide, 100 nM Ab-15.
The target of assay [37] is Ab-15. Kind of assay: competition ELISA: peptide titrated against 1 nM Ab-15; competitor plate-bound CD28.
Assay [38] addresses Ab-15. Described as above. This is another data set of the same source.
Assay [39] addresses Ab-15. Nature of the assay: BLI (Octet): sensor loaded with 200 nM biotinylated peptide, 100 nM Ab-15. This is another data set of the same source.
Assay [40] has as its target Ab-15. Nature of the assay: binding ELISA: biotinylated peptide on neutravidin plate, Ab-15 titrated.
The target in assay [41] is Ab-15. Described as above. This is another data set of the same source.
Assay [42] has as its target B2. Kind of assay: competition ELISA, peptide titrated against 0.3 nM PSMA Fab on captured biotinylated PSMA.
For assay [43], the target named is Ab-15. Nature of the assay: BLI (Octet): biotinylated peptide on sensor, Ab-15 titrated, 1:1 model. This is another data set of the same source.
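For Anti-CD28 Fab signal (phage binding ELISA) in this document: wells pretreated with blocking buffer, either plus or minus CD28 antigen, then given crude phage supernatant briefly without washing in between, then washed before anti-M13 HRP readout.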

B1: PSMA Fab (SEQ ID NOs: 19, 20) (Fab, V domains shown)
VH: QVQLVESGGGVVQPGRSLRLSCAASGFAFSRYGMHWVRQAPGKGLEWVAVIWYDGSNKYYADSVKGRFTISRDNSKNTQYLQMNSLRAEDTAVYYCARGGDFLYYYYYGMDVWGQGTTVTVSS
VL: DIQMTQSPSSLSASVGDRVTITCRASQGISNYLAWYQQKTGKVPKFLIYEASTLQSGVPSRFSGGGSGTDFTLTISSLQPEDVATYYCQNYNSAPFTFGPGTKVDIKR
notes: as for B2
As to B1, the binding result in assay [1], in assay [2], in assay [3], in [4], in [5] and in [6] was “binds” throughout. Further, the binding result in [7], in assay [8], in [9], in assay [10], in [11] and in assay [12] was “binds” in each case. The binding result in assay [13], in assay [14], in [15], in assay [16], in assay [17] and in assay [18] was “binds” in each case. Further, the binding result in assay [19], in [20] and in assay [21] was “binds” throughout.

One may read the EC50 as the concentration that produces a half-maximal response. Low values mean an effect from little substance, high ones a need for much substance. As for B2, the 50% effective concentration (EC50) in assay [22] stood at 5.9 nM; in assay [23], 3 nM; in [24] it was 33 nM; in [25], 120 nM. Further, the “Off rate t1/2” value was 1.09 min in [26]; under 1 min in assay [27]; 0.75 min in assay [28]; under 1 min in assay [29]; under 1 min in [30]; under 1 min in assay [31].

B3: Phage-1705 (clonal phage displaying a Peptide-92 library peptide, SEQ ID NO: 2001) (peptide)
peptide: SCGGGFHYSWPLCF
modifications: cysteine pairing not given here; also: displayed as fusion to phage pIII, linker and order of fusion not given here
notes: not shown: pIII filament protein of the bacteriophage to which the peptide is fused
As to B3, in assay [32], the “Anti-CD28 Fab signal in the presence of CD28 (phage binding ELISA)” value (from here on “Anti-CD28 Fab signal in the presence”) amounted to 0.15. Also, the “Anti-CD28 Fab signal (phage binding ELISA)” value in assay [33] was found to be 0.55.

B4: Phage-1704 (clonal phage displaying a Peptide-92 library peptide, SEQ ID NO: 2000) (peptide)
peptide: SCAAGAGYGWPQCL
modifications: cysteine pairing not given here; also: displayed as fusion to phage pIII, linker and order of fusion not given here
notes: as for B3
B4: in [32], the “Anti-CD28 Fab signal in the presence” value came out at 0.13. For the same molecule, the “Anti-CD28 Fab signal (phage binding ELISA)” value in [33] is 0.55.

In general, Kd refers to the concentration at which binding is half-saturated. A higher Kd goes with weaker binding. The IC50 is the midpoint of a concentration-inhibition curve. A low value points to inhibition by little substance. As to MDWCPRDLWVHCFA (cysteine pairing not given here; also: biotinylated, site not given here, CD28 peptide mask) [Peptide-41], the “Octet signal (20 nM peptide)” value in assay [34] came to 0.509. In assay [35], this molecule showed a Kd of 15.1 nM. Besides, the t1/2 in assay [35] is 15.5 min; in [39] it was 9.8 min. Moreover, the “Octet signal (200 nM peptide)” value in assay [36] worked out at 1.8. Further, the results for the half-inhibitory concentration (IC50) in assay [37] and in [38] were 200 nM and 60 nM, respectively. Besides, in assay [39], the Octet signal was 2.03. Further, the half-maximal effective concentration (EC50) in assay [40] stood at 1 nM; in assay [41], 4 nM.

With PDCVYHSFWGYSCR (cysteine pairing not given here; also: biotinylated (site not given here), PSMA peptide mask (P2)) [Peptide-178], in assay [42], the IC50 was 20800 nM. That is a double-digit micromolar value.

On to IDWCPRYLWDECYN (cysteine pairing not given here; also: biotinylated, site not given here, CD28 peptide mask) [Peptide-71], for which the “Octet signal (200 nM peptide)” value in assay [36] was 1.52. Besides, in [37], the IC50 was found to be 140 nM. In [43], this molecule displayed a Kd of 16 nM and a t1/2 of 9.1 min. In assay [40], the concentration giving a half-maximal response (EC50) turned out to be 2.1 nM.

B5: Phage-1706 (clonal phage displaying a Peptide-92 library peptide, SEQ ID NO: 2002) (peptide)
peptide: GCAAGFHYTLSTCL
modifications: cysteine pairing not given here; also: displayed as fusion to phage pIII, linker and order of fusion not given here
notes: as for B3
As for B5, the “Anti-CD28 Fab signal in the presence” value in assay [32] stood at 0.05. Further, the “Anti-CD28 Fab signal (phage binding ELISA)” value in assay [33] was 0.42.

The values above are taken from patent US20260242478A1 (published 2026).
